Where a chain is given by its changes, count along the chain named.
What was measured:
CDO-IC-D1153N-D1164N = target: T1, CDO-IC-D1153N-D1164N (UniProt Q32MD9)
T1 sequence: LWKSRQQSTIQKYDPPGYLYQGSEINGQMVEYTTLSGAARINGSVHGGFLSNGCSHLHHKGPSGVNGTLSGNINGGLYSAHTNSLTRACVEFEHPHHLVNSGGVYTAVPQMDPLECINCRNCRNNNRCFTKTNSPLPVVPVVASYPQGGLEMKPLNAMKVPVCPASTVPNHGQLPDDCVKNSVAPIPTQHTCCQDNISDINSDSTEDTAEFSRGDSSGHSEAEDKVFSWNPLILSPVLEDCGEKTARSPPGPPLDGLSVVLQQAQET

[1] = target: T2, CDO-IC with Asp1178 to Asn mutation (UniProt Q32MD9)
T2 sequence: T1 sequence with N170D, N181D, D195N

[2] = target: T3, CDO intracellular domain wild type (CDO-IC wt), in vitro-translated (UniProt Q32MD9)
T3 sequence: T1 sequence with N170D, N181D

CDO-IC-D1153N = target: T4, CDO-IC-D1153N (UniProt Q32MD9)
T4 sequence: T1 sequence with N181D

Substance: Recombinant purified active caspase-3
- in vitro cleavage of in vitro-translated CDO-IC by purified active caspase-3 (autoradiograph, FIG. 5) (CDO-IC-D1153N-D1164N): Asp^1153/Asp^1164 to Asn double mutation almost completely suppressed caspase-3 cleavage
- in vitro cleavage of in vitro-translated CDO-IC by purified active caspase-3 (autoradiograph, FIG. 5) [1]: the Asp^1178 to Asn mutation had no effect on CDO-IC cleavage
- in vitro cleavage of in vitro-translated CDO-IC by purified active caspase-3 (autoradiograph, FIG. 5) [2]: CDO intracellular domain (CDO-IC, amino acids 985 to 1250) was cleaved in vitro when incubated with purified active caspase-3
- in vitro cleavage of in vitro-translated CDO-IC by purified active caspase-3 (autoradiograph, FIG. 5) (CDO-IC-D1153N): mutation of Asp^1153 to Asn (CDO-IC D1153N) strongly inhibited cleavage by caspase-3

— patent US20130089548
